Source: article PMC6603201

B1: recombinant mouse XCL1 (ligand)
chain: VGTEVLEESSCVNLQTQRLPVQKIKTYIIWEGAMRAVIFVTKRGLKICADPEAKWVKAAIKTVDGRASTRKNMAETVPTGAQRSTSTAITLTG
B2: recombinant mouse CCL19 (ligand)
chain: GANDAEDCCLSVTQRPIPGNIVKAFRYLLNEDGCRVPAVVFTTLRGYQLCAPPDQPWVDRIIRRLKKSSAKNKGNSTRRSPVS
B3: recombinant mouse CXCL4 (ligand)
chain: VTSAGPEESDGDLSCVCVKTISSGIHLKHITSLEVIKAGRHCAVPQLIATLKNGRKICLDRQAPLYKKVIKKILES
B4: recombinant mouse CCL22 (ligand)
chain: GPYGANVEDSICCQDYIRHPLPSRLVKEFFWTSKSCRKPGVVLITVKNRDICADPRQVWVKKLLHKLS
B5: recombinant mouse CCL3 (ligand)
chain: APYGADTPTACCFSYSRKIPRQFIVDYFETSSLCSQPGVIFLTKRNRQICADSKETWVQEYITDLELNA
B6: recombinant mouse CXCL1 (ligand)
chain: APIANELRCQCLQTMAGIHLKNIQSLKVLPSGPHCTQTEVIATLKNGREACLDPEAPLVQKIVQKMLKGVPK
B7: recombinant mouse CXCL2 (ligand)
chain: AVVASELRCQCLKTLPRVDFKNIQSLSVTPPGPHCAQTEVIATLKGGQKVCLDPEAPLVQKIIQKILNKGKAN
B8: recombinant mouse CXCL10 (ligand)
chain: IPLARTVRCNCIHIDDGPVRMRAIGKLEIIPASLSCPRVEIIATMKKNDEQRCLNPESKTIKNLMKAFSQKRSKRAP

Tests used:
Assay in all cases: SPR; CBP-FLAG immobilised by amine coupling on a CM5 chip (300-400 RU, 10 mM sodium acetate pH 4.5); serial dilutions of mouse chemokine flowed in triplicate for 3 min, 10 min dissociation; 25°C; HBS-EP buffer (20 mM HEPES, 150 mM NaCl, 3.4 mM EDTA, 0.005% Polysorbate 20, pH 7.4); Biacore X100; global fit with a 1:1 binding model
[1] = molecular target: PVNZ112.0-CBP (Parapoxvirus of red deer in New Zealand (PVNZ), strain RD86)
[2] = molecular target: PVNZ112.6-CBP (Parapoxvirus of red deer in New Zealand (PVNZ), strain RD86)
[3] = molecular target: PVNZ112.3-CBP (Parapoxvirus of red deer in New Zealand (PVNZ), strain RD86)

Molecule	Kd [1] [nM]	koff [1] [s⁻¹]	kon [1] [M⁻¹ s⁻¹]	Kd [2] [nM]	koff [2] [s⁻¹]	kon [2] [M⁻¹ s⁻¹]	Kd [3] [nM]	koff [3] [s⁻¹]	kon [3] [M⁻¹ s⁻¹]
recombinant mouse CCL21 (from UniProt P84444 24-133) (ligand)	12.9	0.00682	530000	0.52	0.0103	1.95e+07	17.9	0.00251	140000
recombinant mouse CCL2 (from UniProt P10148 24-148) (ligand)				0.03	0.00037	1.18e+07			
B1	30.8	0.00203	60000						
B2				0.13	0.00132	1e+07	15.8	0.00158	10000
B3	25.9	0.0044	170000	0.59	0.011	1.85e+07	0.97	0.00126	1.29e+06
B4				0.02	0.00047	2.17e+07			
B5				2.51	0.0358	1.42e+07			
B6							0.66	0.00169	2.54e+06
B7							0.48	0.00087	1.79e+06
B8	7.29	0.00708	970000	10.4	0.00146	140000	82.5	0.0198	240000
